From patent US20190201542A1 (AbbVie / Abbott, published 2019) come the findings set out here.

For experiment [1], the target named is T1, DLL3 extracellular domain (amino acids 27-466) (human, UniProt Q9NYJ7 27-466).
T1 construct: also called DLL3 ECD; wild type DLL3 ECD
T1 sequence: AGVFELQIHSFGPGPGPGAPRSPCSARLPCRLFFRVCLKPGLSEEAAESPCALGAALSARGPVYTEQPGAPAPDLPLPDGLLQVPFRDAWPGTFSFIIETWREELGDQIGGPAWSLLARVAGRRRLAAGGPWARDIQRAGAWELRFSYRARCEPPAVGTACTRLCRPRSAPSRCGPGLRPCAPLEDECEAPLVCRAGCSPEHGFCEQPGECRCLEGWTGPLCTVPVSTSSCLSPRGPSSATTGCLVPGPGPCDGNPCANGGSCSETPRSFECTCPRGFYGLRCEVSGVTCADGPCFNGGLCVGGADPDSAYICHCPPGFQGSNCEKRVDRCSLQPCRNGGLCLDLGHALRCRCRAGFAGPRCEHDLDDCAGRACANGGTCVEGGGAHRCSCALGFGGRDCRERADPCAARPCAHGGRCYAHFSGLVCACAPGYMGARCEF
In words: fine epitope mapping (phage display peptides or yeast display of DLL3 ECD mutants). On the procedure: Fine epitope mapping was further performed on selected antibodies using one of two methods. The first method employed the Ph.D.-12 phage display peptide library kit (New England Biolabs) which was used in accordance with the manufacturer's instructions. The antibody for epitope mapping was coated overnight at 50 μg/mL in 3 mL 0.1 M sodium bicarbonate solution, pH 8, onto a Nunc MaxiSorp tube (Nunc). The tube was blocked with 3% BSA solution in bicarbonate solution. Then, […] input phage in PBS+0.1% Tween-20 was allowed to bind, followed by ten consecutive washes with 0.1% Tween-20 to wash away non-binding phage. Remaining phage were eluted with 1 mL 0.2 M glycine for 10 minutes at room temperature with gentle agitation, followed by neutralization with 150 μL 1M Tris-HCl pH 9. Eluted phage were amplified and panned again with 10¹¹ input phage, using 0.5% Tween-20 during the wash steps to increase selection stringency. DNA from 24 plaques of the eluted phage from the second round was isolated using the Qiaprep M13 Spin kit (Qiagen) and sequenced. Binding of clonal phage was confirmed using an ELISA assay, where the mapped antibody or a control antibody was coated onto an ELISA plate, blocked, and exposed to each phage clone. Phage binding was detected using horseradish peroxidase conjugated anti-M13 antibody (GE Healthcare), and the 1-Step Turbo TMB ELISA solution (Pierce). Phage peptide sequences from specifically binding phage were aligned using Vector NTI (Life Technologies) against the antigen ECD peptide sequence to determine the epitope of binding.
Alternatively, a yeast display method (Chao et al., 2007, PMID: 17406305) was used to map the epitopes of selected antibodies. Libraries of DLL3 ECD mutants were generated with error prone PCR using nucleotide analogues 8-oxo-2′deoxyguanosine-5′-triphosphate and 2′-deoxy-p-nucleoside-5′triphosphate (TriLink Bio) for a target mutagenesis rate of one amino acid mutation per clone. These were transformed into a yeast display format. […]

In a further experiment the target is T2, human DLL3 (human, UniProt Q9NYJ7 27-492, limits assumed).
T2 construct: also called hDLL3; DLL3 protein
T2 sequence: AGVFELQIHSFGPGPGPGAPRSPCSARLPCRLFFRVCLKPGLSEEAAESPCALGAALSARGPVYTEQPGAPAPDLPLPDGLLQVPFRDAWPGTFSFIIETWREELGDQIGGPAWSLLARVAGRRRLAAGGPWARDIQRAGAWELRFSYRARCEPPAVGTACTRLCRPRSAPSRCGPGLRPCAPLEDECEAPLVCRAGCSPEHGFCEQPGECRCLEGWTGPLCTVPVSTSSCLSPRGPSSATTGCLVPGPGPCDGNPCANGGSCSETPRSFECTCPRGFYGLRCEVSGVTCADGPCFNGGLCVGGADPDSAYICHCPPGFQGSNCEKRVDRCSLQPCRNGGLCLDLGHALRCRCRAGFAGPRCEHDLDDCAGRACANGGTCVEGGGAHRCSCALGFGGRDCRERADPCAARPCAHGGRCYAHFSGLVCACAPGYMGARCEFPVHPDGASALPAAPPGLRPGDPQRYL
In words: screen on immobilized hDLL3 or h293-hDLL3 cells. The procedure, abridged:
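After 10 days in culture, supernatants of single-cell hybridomas from human DLL3-immunized mice were tested on cells and by solid-phase ELISA. A flow-cytometry signal above the control level counted as binding. The ELISA used DLL3-His coated at 0.5 μg/ml, HRP anti-mouse IgG and TMB, with reading at OD 450.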

The target of experiment [2] is T3, hASCL1 in 293 cells engineered to express ASCL1 (293-ASCL1) (human, UniProt P50553 1-236).
T3 construct: whole, on cells; also called DDDK-tagged hASCL1 from pLMEGPA-hASCL1-NFlag
T3 sequence (looked up): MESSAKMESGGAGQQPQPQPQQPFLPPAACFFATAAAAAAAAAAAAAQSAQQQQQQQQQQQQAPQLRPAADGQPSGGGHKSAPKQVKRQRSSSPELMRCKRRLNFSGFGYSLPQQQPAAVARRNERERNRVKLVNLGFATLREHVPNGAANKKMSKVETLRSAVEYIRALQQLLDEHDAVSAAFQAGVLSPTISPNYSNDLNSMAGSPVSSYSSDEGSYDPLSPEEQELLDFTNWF
In words: immunohistochemistry on FFPE sections, antibody at 10 ug/ml. The protocol:
IHC was performed essentially as follows. Planar sections of formalin fixed and paraffin embedded (FFPE) tissues were cut and mounted on glass microscope slides. After xylene de-paraffinization 5 μm sections were pre-treated with Antigen Retrieval Solution (Dako) for 20 mins. at 99° C., cooled to 75° C. and then treated with 0.3% hydrogen peroxide in PBS followed by Avidin/Biotin Blocking Solution (Vector Laboratories). FFPE slides were then blocked with 10% horse serum in 3% BSA in PBS buffer and incubated with a primary anti-ASCL1 antibody (clone SC72.2), diluted to 10 μg/ml in 3% BSA/PBS, for 30 mins. at room temperature. The FFPE slides were incubated with biotin-conjugated horse anti-mouse antibody (Vector Laboratories), diluted to 2.5 μg/ml in 3% BSA/PBS, for 30 mins. at room temperature followed by incubation in streptavidin-HRP (ABC Elite Kit; Vector Laboratories). Chromogenic detection was developed with 3,3′-diaminobenzidine (Thermo Scientific) for 5 mins. at room temperature and tissues were counterstained with Meyer's hematoxylin (IHC World), washed with alcohol and immersed in xylene. Sections were then viewed by brightfield microscopy and ASCL1 expression was noted.
PDX tumors were stained by IHC (FIG. 12) and ASCL1 protein expression by IHC correlates with the expected ASCL1 mRNA expression based on microarray results.

Another experiment addresses T4, human ASCL1 (human, UniProt P50553 1-236, limits assumed).
T4 construct: Transcription factor; also called hASCL1; immobilized human ASCL1
T4 sequence (looked up): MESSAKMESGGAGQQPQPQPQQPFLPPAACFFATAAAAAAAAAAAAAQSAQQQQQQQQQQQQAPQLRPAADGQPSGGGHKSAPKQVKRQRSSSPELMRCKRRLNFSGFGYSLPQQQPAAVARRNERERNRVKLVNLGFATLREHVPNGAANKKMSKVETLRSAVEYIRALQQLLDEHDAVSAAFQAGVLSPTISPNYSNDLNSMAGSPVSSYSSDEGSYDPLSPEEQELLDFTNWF
The experiment in a line: screen on immobilized hASCL1 or h293-hASCL1 cells.

B1: SC16.34 (antibody, V domains shown)
VH: QIQLVQSGPELKRPGETVKISCKASGYTFTNYGMNWVKQAPGKGLKWMGWINTYTGDPTYADDFKGRFAFSLETSASTAYLQINNLKNEDTATYFCARIGGNSPSDYWGQGTSLTVSS
VL: SIVMTQTPKFLLVSAGDRVTITCKASQSVSNDVAWYQQKPGQSPKLLIYYASNRYSGVPDRFTGSGYGTDFTFTISTVQAEDLAVYFCQQDYSSPWTFGGGTKLEIK
notes: murine mAb
With B1, the binding result (in experiment [1]; with human DLL3) was “binds” each time.

B2: SC16.56 (antibody, V domains shown)
VH: QIQLVQSGPELKKPGETVKISCKASGYTFTNYGMNWVKQAPGKGLKWMAWINTYTGEPTYADDFKGRFAFSLETSASTASLQIINLKNEDTATYFCARIGDSSPSDYWGQGTTLTVSS
VL: SIVMTQTPKFLLVSAGDRVTITCKASQSVSNDVVWYQQKPGQSPKLLIYYASNRYTGVPDRFAGSGYGTDFSFTISTVQAEDLAVYFCQQDYTSPWTFGGGTKLEIR
notes: murine mAb
As to B2, the binding result (in experiment [1]; with human DLL3) was “binds” each time.

B3: SC16.23 (antibody, V domains shown)
VH: QVTLKESGPGILQPSQTLSLTCSFSGFSLSTSNTGIGWIRQPSGTGLEWLAHIWWNDDKYYNPSLKSRLTISKETSNNQVFLKITNVDTADTASYFCVQIGRDYSNYAWYFDVWGAGTTVTVSS
VL: QIVLTQSPAIMSASPGEKVTLTCSASSSVSSRYLYWYQQKPGSSPKLWIYSTSNLASGVPARFSGSGSGTSYSLIISSMEAEDAASYFCHQWSNYPLTFGAGTKLELK
notes: murine mAb
For the molecule B3, the binding result (in experiment [1]; with human DLL3) was “binds” each time.

B4: SC72.2 (antibody, V domains shown)
VH: QVQLQQSGAELVRPGASVTLSCKASGYTFIDYEMHWVKQTPVHGLEWIGAIDPETGGTTYNQNFKGKATLTADKSSNTAYMELRSLTSGDSAVYYCSRGGLDYWGQGTTLTVSS
VL: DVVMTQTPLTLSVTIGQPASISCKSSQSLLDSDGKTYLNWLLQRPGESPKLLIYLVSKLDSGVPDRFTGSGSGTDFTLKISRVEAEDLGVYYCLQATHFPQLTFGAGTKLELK
notes: murine mAb; also called anti-ASCL1 antibody clone SC72.2
On to B4, for which the binding result (in experiment [2]; with human ASCL1) was “binds” throughout.
